Test results published in PMC5976803.
Each block holds one binder with its values, some of them ahead of it.

Tests used:
Test in all cases: proteoliposome ELISA
Conditions in all cases: chain shown with the change;; parent: est. 1.0; read off a plot
[1] = molecular target: T1, anti-CLDN-5 ECR mAb clone 1B3
T1 chain 1: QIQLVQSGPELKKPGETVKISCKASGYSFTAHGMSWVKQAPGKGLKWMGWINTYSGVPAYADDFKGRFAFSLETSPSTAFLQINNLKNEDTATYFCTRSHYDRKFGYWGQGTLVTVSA
T1 chain 2: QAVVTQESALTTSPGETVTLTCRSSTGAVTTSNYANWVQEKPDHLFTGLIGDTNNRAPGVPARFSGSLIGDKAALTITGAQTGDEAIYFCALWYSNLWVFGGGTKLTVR

[2] = molecular target: anti-CLDN-5 ECR mAb clone 2B12
Sequence of anti-CLDN-5 ECR mAb clone 2B12 (chain, as listed by the source, chain 1 of 2): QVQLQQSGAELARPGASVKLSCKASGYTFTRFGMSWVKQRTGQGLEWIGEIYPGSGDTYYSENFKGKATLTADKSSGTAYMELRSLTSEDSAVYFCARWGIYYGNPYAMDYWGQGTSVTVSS
Sequence of anti-CLDN-5 ECR mAb clone 2B12 (chain, as listed by the source, chain 2 of 2): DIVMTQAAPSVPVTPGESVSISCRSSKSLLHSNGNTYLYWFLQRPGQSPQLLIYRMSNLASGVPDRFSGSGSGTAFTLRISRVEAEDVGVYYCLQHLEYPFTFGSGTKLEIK

[3] = molecular target: anti-CLDN-5 ECR mAb clone 1D1
Sequence of anti-CLDN-5 ECR mAb clone 1D1 (chain, as listed by the source, chain 1 of 2): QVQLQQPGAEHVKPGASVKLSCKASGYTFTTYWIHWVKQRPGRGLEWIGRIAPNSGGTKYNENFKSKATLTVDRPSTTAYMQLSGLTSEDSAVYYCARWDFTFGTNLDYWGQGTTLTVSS
Sequence of anti-CLDN-5 ECR mAb clone 1D1 (chain, as listed by the source, chain 2 of 2): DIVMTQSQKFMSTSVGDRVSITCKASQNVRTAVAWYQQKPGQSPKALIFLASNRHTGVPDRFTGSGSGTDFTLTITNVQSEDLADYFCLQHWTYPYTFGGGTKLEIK

[4] = molecular target: anti-CLDN-5 ECR mAb clone 2B1
Sequence of anti-CLDN-5 ECR mAb clone 2B1 (chain, as listed by the source, chain 1 of 2): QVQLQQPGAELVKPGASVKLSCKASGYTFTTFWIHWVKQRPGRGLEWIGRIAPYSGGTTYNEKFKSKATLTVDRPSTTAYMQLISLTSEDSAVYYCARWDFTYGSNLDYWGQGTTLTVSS
Sequence of anti-CLDN-5 ECR mAb clone 2B1 (chain, as listed by the source, chain 2 of 2): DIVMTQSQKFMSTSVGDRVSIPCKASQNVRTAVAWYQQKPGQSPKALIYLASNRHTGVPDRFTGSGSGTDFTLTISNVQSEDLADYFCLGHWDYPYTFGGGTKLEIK

B1: AGIA-tagged human CLDN-5, cell-free synthesized proteoliposome, O00501 Q156A (protein)
chain: MGSAALEILGLVLCLVGWGGLILACGLPMWQVTAFLDHNIVTAQTTWKGLWMSCVVQSTGHMQCKVYDSVLALSTEVQAARALTVSAVLLAFVALFVTLAGAQCTTCVAPGPAKARVALTGGVLYLFCGLLALVPLCWFANIVVREFYDPSVPVSAKYELGAALYIGWAATALLMVGGCLLCCGAWVCTGRPDLSFPVKYSAPRRPTATGDYDKKNYV
ratio to parent [1]: 1.2
ratio to parent [2]: 0.94
ratio to parent [3]: 0.88
ratio to parent [4]: 0.55

B2: AGIA-tagged human CLDN-5, cell-free synthesized proteoliposome, O00501 P150A (protein)
chain: MGSAALEILGLVLCLVGWGGLILACGLPMWQVTAFLDHNIVTAQTTWKGLWMSCVVQSTGHMQCKVYDSVLALSTEVQAARALTVSAVLLAFVALFVTLAGAQCTTCVAPGPAKARVALTGGVLYLFCGLLALVPLCWFANIVVREFYDASVPVSQKYELGAALYIGWAATALLMVGGCLLCCGAWVCTGRPDLSFPVKYSAPRRPTATGDYDKKNYV
ratio to parent [1]: 1.8
ratio to parent [2]: 0.13
ratio to parent [3]: 0.26
ratio to parent [4]: 0.27

B4: AGIA-tagged human CLDN-5, cell-free synthesized proteoliposome, O00501 S155A (protein)
chain: MGSAALEILGLVLCLVGWGGLILACGLPMWQVTAFLDHNIVTAQTTWKGLWMSCVVQSTGHMQCKVYDSVLALSTEVQAARALTVSAVLLAFVALFVTLAGAQCTTCVAPGPAKARVALTGGVLYLFCGLLALVPLCWFANIVVREFYDPSVPVAQKYELGAALYIGWAATALLMVGGCLLCCGAWVCTGRPDLSFPVKYSAPRRPTATGDYDKKNYV
ratio to parent [1]: 1.3
ratio to parent [2]: 0.99
ratio to parent [3]: 0.86
ratio to parent [4]: 0.84

B5: AGIA-tagged human CLDN-5, cell-free synthesized proteoliposome, O00501 F147A (protein)
chain: MGSAALEILGLVLCLVGWGGLILACGLPMWQVTAFLDHNIVTAQTTWKGLWMSCVVQSTGHMQCKVYDSVLALSTEVQAARALTVSAVLLAFVALFVTLAGAQCTTCVAPGPAKARVALTGGVLYLFCGLLALVPLCWFANIVVREAYDPSVPVSQKYELGAALYIGWAATALLMVGGCLLCCGAWVCTGRPDLSFPVKYSAPRRPTATGDYDKKNYV
ratio to parent [1]: 2.4
ratio to parent [2]: 1.3
ratio to parent [3]: 1.5
ratio to parent [4]: 1.1

B6: AGIA-tagged human CLDN-5, cell-free synthesized proteoliposome, O00501 P153A (protein)
chain: MGSAALEILGLVLCLVGWGGLILACGLPMWQVTAFLDHNIVTAQTTWKGLWMSCVVQSTGHMQCKVYDSVLALSTEVQAARALTVSAVLLAFVALFVTLAGAQCTTCVAPGPAKARVALTGGVLYLFCGLLALVPLCWFANIVVREFYDPSVAVSQKYELGAALYIGWAATALLMVGGCLLCCGAWVCTGRPDLSFPVKYSAPRRPTATGDYDKKNYV
ratio to parent [1]: 0.19
ratio to parent [2]: 0.08
ratio to parent [3]: 0.13
ratio to parent [4]: 0.14

B8: AGIA-tagged human CLDN-5, cell-free synthesized proteoliposome, O00501 D149A (protein)
chain: MGSAALEILGLVLCLVGWGGLILACGLPMWQVTAFLDHNIVTAQTTWKGLWMSCVVQSTGHMQCKVYDSVLALSTEVQAARALTVSAVLLAFVALFVTLAGAQCTTCVAPGPAKARVALTGGVLYLFCGLLALVPLCWFANIVVREFYAPSVPVSQKYELGAALYIGWAATALLMVGGCLLCCGAWVCTGRPDLSFPVKYSAPRRPTATGDYDKKNYV
ratio to parent [1]: 0.17
ratio to parent [2]: 0.03
ratio to parent [3]: 0.06
ratio to parent [4]: 0.11

B9: AGIA-tagged human CLDN-5, cell-free synthesized proteoliposome, O00501 S151A (protein)
chain: MGSAALEILGLVLCLVGWGGLILACGLPMWQVTAFLDHNIVTAQTTWKGLWMSCVVQSTGHMQCKVYDSVLALSTEVQAARALTVSAVLLAFVALFVTLAGAQCTTCVAPGPAKARVALTGGVLYLFCGLLALVPLCWFANIVVREFYDPAVPVSQKYELGAALYIGWAATALLMVGGCLLCCGAWVCTGRPDLSFPVKYSAPRRPTATGDYDKKNYV
ratio to parent [1]: 0.75
ratio to parent [2]: 0.03
ratio to parent [3]: 0.1
ratio to parent [4]: 0.14

B11: AGIA-tagged human CLDN-5, cell-free synthesized proteoliposome, O00501 E146A (protein)
chain: MGSAALEILGLVLCLVGWGGLILACGLPMWQVTAFLDHNIVTAQTTWKGLWMSCVVQSTGHMQCKVYDSVLALSTEVQAARALTVSAVLLAFVALFVTLAGAQCTTCVAPGPAKARVALTGGVLYLFCGLLALVPLCWFANIVVRAFYDPSVPVSQKYELGAALYIGWAATALLMVGGCLLCCGAWVCTGRPDLSFPVKYSAPRRPTATGDYDKKNYV
ratio to parent [1]: 0.49
ratio to parent [2]: 0.36
ratio to parent [3]: 0.26
ratio to parent [4]: 0.25

Continued, values first:

ratio to parent [1]: 0.17
ratio to parent [2]: 0.75
ratio to parent [3]: 1.3
ratio to parent [4]: 1.1
B3: AGIA-tagged human CLDN-5, cell-free synthesized proteoliposome, O00501 Y148A (protein)
chain: MGSAALEILGLVLCLVGWGGLILACGLPMWQVTAFLDHNIVTAQTTWKGLWMSCVVQSTGHMQCKVYDSVLALSTEVQAARALTVSAVLLAFVALFVTLAGAQCTTCVAPGPAKARVALTGGVLYLFCGLLALVPLCWFANIVVREFADPSVPVSQKYELGAALYIGWAATALLMVGGCLLCCGAWVCTGRPDLSFPVKYSAPRRPTATGDYDKKNYV

ratio to parent [1]: 1.2
ratio to parent [2]: 0.87
ratio to parent [3]: 1.3
ratio to parent [4]: 1.1
B7: AGIA-tagged human CLDN-5, cell-free synthesized proteoliposome, O00501 V154A (protein)
chain: MGSAALEILGLVLCLVGWGGLILACGLPMWQVTAFLDHNIVTAQTTWKGLWMSCVVQSTGHMQCKVYDSVLALSTEVQAARALTVSAVLLAFVALFVTLAGAQCTTCVAPGPAKARVALTGGVLYLFCGLLALVPLCWFANIVVREFYDPSVPASQKYELGAALYIGWAATALLMVGGCLLCCGAWVCTGRPDLSFPVKYSAPRRPTATGDYDKKNYV

ratio to parent [1]: 0.25
ratio to parent [2]: 0.39
ratio to parent [3]: 1.6
ratio to parent [4]: 1.2
B10: AGIA-tagged human CLDN-5, cell-free synthesized proteoliposome, O00501 V152A (protein)
chain: MGSAALEILGLVLCLVGWGGLILACGLPMWQVTAFLDHNIVTAQTTWKGLWMSCVVQSTGHMQCKVYDSVLALSTEVQAARALTVSAVLLAFVALFVTLAGAQCTTCVAPGPAKARVALTGGVLYLFCGLLALVPLCWFANIVVREFYDPSAPVSQKYELGAALYIGWAATALLMVGGCLLCCGAWVCTGRPDLSFPVKYSAPRRPTATGDYDKKNYV
